Earlier results, collected in patent US20030144198A1, “Coadministration of transport protein with conjugated cobalamin to deliver agents” (priority 2001, published 2003).

B1: HC: haptocorrin, group of cobalamin binding proteins that includes TC-I and TC-III (protein, UniProt P20061 24-433, looked up)
Transcobalamin-1: EICEVSEENYIRLKPLLNTMIQSNYNRGTSAVNVVLSLKLVGIQIQTLMQKMIQQIKYNVKSRLSDVSSGELALIILALGVCRNAEENLIYDYHLIDKLENKFQAEIENMEAHNGTPLTNYYQLSLDVLALCLFNGNYSTAEVVNHFTPENKNYYFGSQFSVDTGAMAVLALTCVKKSLINGQIKADEGSLKNISIYTKSLVEKILSEKKENGLIGNTFSTGEAMQALFVSSDYYNENDWNCQQTLNTVLTEISQGAFSNPNAAAQVLPALMGKTFLDINKDSSCVSASGNFNISADEPITVTPPDSQSYISVNYSVRINETYFTNVTVLNGSVFLSVMEKAQKMNDTIFGFTMEERSWGPYITCIQGLCANNNDRTYWELLSGGEPLSQGAGSYVVRNGENLEVRWSKY
B2: TC-I: transcobalamin I, plasma cobalamin storage protein (protein, UniProt P20061 24-433, looked up)
Transcobalamin-1: EICEVSEENYIRLKPLLNTMIQSNYNRGTSAVNVVLSLKLVGIQIQTLMQKMIQQIKYNVKSRLSDVSSGELALIILALGVCRNAEENLIYDYHLIDKLENKFQAEIENMEAHNGTPLTNYYQLSLDVLALCLFNGNYSTAEVVNHFTPENKNYYFGSQFSVDTGAMAVLALTCVKKSLINGQIKADEGSLKNISIYTKSLVEKILSEKKENGLIGNTFSTGEAMQALFVSSDYYNENDWNCQQTLNTVLTEISQGAFSNPNAAAQVLPALMGKTFLDINKDSSCVSASGNFNISADEPITVTPPDSQSYISVNYSVRINETYFTNVTVLNGSVFLSVMEKAQKMNDTIFGFTMEERSWGPYITCIQGLCANNNDRTYWELLSGGEPLSQGAGSYVVRNGENLEVRWSKY

Columns and labels:
[1] = the D isomer was not hydrolyzed
cubilin = cubilin (Homo sapiens, UniProt O60494); conditions: at 20° C., single binding site, dependent on calcium
Sequence of cubilin (O60494 36-3623, species assumed): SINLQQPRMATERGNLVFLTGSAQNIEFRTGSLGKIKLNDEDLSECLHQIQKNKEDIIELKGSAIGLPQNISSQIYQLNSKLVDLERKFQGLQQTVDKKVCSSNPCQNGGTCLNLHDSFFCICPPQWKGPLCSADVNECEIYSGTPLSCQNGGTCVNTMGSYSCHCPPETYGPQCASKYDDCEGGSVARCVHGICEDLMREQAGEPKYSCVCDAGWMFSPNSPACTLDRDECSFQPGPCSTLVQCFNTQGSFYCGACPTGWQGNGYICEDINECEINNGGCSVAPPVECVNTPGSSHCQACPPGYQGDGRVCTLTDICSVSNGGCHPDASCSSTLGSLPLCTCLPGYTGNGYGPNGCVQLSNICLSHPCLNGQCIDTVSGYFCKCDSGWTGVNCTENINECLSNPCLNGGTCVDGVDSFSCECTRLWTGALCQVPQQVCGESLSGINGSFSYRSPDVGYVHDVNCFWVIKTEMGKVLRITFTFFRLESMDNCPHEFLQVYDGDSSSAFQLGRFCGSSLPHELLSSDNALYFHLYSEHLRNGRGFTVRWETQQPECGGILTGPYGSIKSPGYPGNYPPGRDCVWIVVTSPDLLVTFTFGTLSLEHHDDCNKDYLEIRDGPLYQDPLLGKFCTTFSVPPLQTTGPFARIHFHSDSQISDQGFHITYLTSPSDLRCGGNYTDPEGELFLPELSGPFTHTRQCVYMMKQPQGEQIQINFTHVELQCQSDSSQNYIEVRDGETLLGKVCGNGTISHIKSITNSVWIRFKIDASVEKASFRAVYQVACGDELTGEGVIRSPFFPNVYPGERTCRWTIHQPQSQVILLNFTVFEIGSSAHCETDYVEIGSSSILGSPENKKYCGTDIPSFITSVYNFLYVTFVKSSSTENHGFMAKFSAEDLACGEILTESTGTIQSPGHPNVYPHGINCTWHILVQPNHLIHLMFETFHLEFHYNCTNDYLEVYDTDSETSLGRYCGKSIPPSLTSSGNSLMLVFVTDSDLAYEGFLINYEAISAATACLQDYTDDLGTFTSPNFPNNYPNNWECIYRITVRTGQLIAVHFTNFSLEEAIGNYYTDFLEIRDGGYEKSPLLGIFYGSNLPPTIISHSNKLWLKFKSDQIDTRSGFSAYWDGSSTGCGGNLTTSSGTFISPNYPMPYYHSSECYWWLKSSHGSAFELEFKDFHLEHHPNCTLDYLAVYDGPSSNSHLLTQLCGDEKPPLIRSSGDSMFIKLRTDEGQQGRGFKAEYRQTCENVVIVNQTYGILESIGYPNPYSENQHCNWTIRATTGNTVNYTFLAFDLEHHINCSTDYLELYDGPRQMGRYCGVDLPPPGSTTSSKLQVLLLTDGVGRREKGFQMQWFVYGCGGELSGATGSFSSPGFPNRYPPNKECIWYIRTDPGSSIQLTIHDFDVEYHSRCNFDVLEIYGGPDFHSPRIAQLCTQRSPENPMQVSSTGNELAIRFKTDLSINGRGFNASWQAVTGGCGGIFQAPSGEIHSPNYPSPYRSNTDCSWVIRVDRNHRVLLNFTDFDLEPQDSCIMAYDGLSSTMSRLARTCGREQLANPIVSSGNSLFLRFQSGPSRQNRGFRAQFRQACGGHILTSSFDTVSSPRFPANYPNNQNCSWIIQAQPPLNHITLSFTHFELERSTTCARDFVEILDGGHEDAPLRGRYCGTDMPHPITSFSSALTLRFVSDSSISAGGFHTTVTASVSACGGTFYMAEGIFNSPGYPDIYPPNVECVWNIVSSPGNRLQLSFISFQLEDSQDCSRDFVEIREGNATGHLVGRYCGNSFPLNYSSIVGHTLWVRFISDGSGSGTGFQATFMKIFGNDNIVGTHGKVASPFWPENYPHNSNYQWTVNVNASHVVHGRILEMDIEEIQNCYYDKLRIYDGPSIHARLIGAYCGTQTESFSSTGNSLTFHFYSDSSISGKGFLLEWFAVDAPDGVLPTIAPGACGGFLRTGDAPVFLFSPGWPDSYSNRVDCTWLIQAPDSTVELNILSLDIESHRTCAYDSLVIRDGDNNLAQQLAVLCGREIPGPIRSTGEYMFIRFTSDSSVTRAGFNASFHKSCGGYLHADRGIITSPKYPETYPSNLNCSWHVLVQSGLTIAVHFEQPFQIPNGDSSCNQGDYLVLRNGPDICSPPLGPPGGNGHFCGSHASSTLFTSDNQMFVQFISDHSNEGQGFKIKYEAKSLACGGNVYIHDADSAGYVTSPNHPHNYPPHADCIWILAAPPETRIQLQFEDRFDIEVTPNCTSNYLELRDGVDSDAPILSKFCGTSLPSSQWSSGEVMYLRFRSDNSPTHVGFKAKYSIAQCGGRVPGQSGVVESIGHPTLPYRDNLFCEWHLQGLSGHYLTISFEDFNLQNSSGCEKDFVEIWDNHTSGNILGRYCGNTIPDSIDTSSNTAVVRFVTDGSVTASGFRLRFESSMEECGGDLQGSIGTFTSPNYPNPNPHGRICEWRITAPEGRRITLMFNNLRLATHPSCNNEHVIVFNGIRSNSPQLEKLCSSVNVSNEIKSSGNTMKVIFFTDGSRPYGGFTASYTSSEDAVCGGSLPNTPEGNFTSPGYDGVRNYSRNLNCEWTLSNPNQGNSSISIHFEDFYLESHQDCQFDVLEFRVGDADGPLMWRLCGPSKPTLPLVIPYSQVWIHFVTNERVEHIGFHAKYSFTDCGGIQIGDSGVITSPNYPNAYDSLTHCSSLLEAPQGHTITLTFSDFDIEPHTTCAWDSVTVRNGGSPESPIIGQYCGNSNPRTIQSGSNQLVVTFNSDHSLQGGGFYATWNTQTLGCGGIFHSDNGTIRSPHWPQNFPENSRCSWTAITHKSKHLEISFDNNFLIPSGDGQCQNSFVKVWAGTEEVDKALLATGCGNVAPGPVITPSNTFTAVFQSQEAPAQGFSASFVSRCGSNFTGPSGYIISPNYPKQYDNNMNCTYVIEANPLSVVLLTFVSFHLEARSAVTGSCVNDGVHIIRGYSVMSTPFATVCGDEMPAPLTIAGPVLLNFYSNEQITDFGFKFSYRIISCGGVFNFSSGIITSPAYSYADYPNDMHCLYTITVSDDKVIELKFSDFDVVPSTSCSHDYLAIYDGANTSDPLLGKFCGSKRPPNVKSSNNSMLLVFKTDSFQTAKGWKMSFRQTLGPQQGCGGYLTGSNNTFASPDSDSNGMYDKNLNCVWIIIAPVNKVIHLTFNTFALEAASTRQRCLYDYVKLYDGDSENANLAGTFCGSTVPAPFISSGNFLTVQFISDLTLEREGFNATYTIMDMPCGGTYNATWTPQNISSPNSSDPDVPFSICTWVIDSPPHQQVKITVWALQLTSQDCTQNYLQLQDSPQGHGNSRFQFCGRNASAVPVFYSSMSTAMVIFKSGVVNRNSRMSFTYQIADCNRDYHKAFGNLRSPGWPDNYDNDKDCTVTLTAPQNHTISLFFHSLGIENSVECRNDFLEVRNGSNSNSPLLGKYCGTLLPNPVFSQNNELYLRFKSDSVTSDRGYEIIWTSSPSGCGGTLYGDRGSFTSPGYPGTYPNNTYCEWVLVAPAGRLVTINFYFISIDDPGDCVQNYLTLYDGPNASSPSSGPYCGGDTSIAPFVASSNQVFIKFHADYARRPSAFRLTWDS
Sequence of cubilin (P27352 19-417 partner, species assumed): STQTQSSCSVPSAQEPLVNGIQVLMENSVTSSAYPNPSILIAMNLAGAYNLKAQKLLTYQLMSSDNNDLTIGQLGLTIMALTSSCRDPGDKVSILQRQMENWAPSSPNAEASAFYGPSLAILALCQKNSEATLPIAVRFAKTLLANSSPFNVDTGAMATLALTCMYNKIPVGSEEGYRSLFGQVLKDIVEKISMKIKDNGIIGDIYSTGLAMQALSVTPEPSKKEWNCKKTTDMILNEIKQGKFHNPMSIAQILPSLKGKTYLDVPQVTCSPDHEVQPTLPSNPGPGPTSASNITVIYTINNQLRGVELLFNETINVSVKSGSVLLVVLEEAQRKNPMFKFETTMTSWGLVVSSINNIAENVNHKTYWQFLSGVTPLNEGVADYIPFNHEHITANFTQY

[2] = in plasma

Row | Molecule | t1/2 [2] | further results
1 | COc1cccc2c1C(=O)c1c(O)c3c(c(O)c1C2=O)C[C@@](O)(C(C)=O)C[C@@H]3O[C@H]1C[C@H](NC(=O)[C@@H](N)CC(C)C)C(O)[C@H](C)O1 (stereo partly drawn) [N-(L-leucyl) daunorubicin] | – | hydrolysis in vivo [1]: hydrolyzed in vivo to regenerate daunorubicin
2 | IF-B12: complex of intrinsic factor with vitamin B12 | – | Kd (cubilin): 1 to 5 nM
3 | B1 | 240 h | –
4 | B2 | 240 h | –
